Assay results as given in patent US20250320281A1.

Legend:
[1] = molecular target: HIV-1 Env of pseudovirus isolate MGRM-G-001 (HIV-1); test: cell-based or functional assay
[2] = molecular target: HIV-1 Env of pseudovirus isolate MGRM-G-004 (HIV-1); test: cell-based or functional assay
[3] = molecular target: HIV-1 Env of pseudovirus isolate MGRM-G-006 (HIV-1); test: cell-based or functional assay
[4] = molecular target: HIV-1 Env of pseudovirus isolate MGRM-G-009 (HIV-1); test: cell-based or functional assay
[5] = molecular target: HIV-1 Env of pseudovirus isolate MGRM-G-011 (HIV-1); test: cell-based or functional assay
[6] = molecular target: HIV-1 Env of pseudovirus isolate MGRM-G-013 (HIV-1); test: cell-based or functional assay
[7] = molecular target: HIV-1 Env of pseudovirus isolate MGRM-G-014 (HIV-1); test: cell-based or functional assay
[8] = molecular target: HIV-1 Env of pseudovirus isolate MGRM-G-015 (HIV-1); test: cell-based or functional assay
[9] = molecular target: HIV-1 Env of pseudovirus isolate MGRM-G-016 (HIV-1); test: cell-based or functional assay
[10] = molecular target: HIV-1 Env of pseudovirus isolate MGRM-G-017 (HIV-1); test: cell-based or functional assay
[11] = molecular target: HIV-1 Env of pseudovirus isolate MGRM-G-019 (HIV-1); test: cell-based or functional assay
[12] = molecular target: HIV-1 Env of pseudovirus isolate MGRM-G-027 (HIV-1); test: cell-based or functional assay
[13] = molecular target: envelope of aMLV pseudovirus (negative control); test: cell-based or functional assay
WT JR-FL gp120 (HIV-1) = test: ELISA, antigen-coated wells

## 5114_A19 (PGT-128) (antibody)
[1]
  IC50 (µg/mL), pseudovirus neutralization: 0.019 µg/mL
[2]
  IC50 (µg/mL), pseudovirus neutralization: > 50 µg/mL
[3]
  IC50 (µg/mL), pseudovirus neutralization: > 50 µg/mL
[4]
  IC50 (µg/mL), pseudovirus neutralization: > 50 µg/mL
[5]
  IC50 (µg/mL), pseudovirus neutralization: 8.21 µg/mL
[6]
  IC50 (µg/mL), pseudovirus neutralization: 0.995 µg/mL
[7]
  IC50 (µg/mL), pseudovirus neutralization: 0.004 µg/mL
[8]
  IC50 (µg/mL), pseudovirus neutralization: > 50 µg/mL
[9]
  IC50 (µg/mL), pseudovirus neutralization: > 50 µg/mL
[10]
  IC50 (µg/mL), pseudovirus neutralization: 0.319 µg/mL
[11]
  IC50 (µg/mL), pseudovirus neutralization: 0.01 µg/mL
[12]
  IC50 (µg/mL), pseudovirus neutralization: 0.313 µg/mL
[13]
  IC50 (µg/mL), pseudovirus neutralization: > 50 µg/mL
WT JR-FL gp120 (HIV-1)
  EC50: 0.1 µg/mL
